In PMC9241078 one finds pKa data, which are given here for four proteins.

What all share (experiment): potentiometry
One data set has as its target Cterm120. Conditions: 298 K; 0.1 M KCl; none (peptide dissolved in 4 x 10^-3 M HCl); metal-free peptide. Ligand concentration is 0.5 mM in Methods, but the Table 3 footnote says 0.001 M.
A further data set deals with Glu117. The settings on record: 298 K, 0.1 M KCl, none (peptide dissolved in 4 x 10^-3 M HCl).
Data set [1] deals with Glu132 (UniProt position 132, …--). The settings on record: 298 K; 0.1 M KCl; none (peptide dissolved in 4 x 10^-3 M HCl); metal-free peptide. Ligand concentration is 0.5 mM in Methods, but the Table 3 footnote says 0.001 M.
The target in data set [2] is Cterm135 (UniProt position 135, AGEDAI-----). The settings on record: 298 K; 0.1 M KCl; none (peptide dissolved in 4 x 10^-3 M HCl); metal-free peptide. Ligand concentration is 0.5 mM in Methods, but the Table 3 footnote says 0.001 M.
[3] abbreviates: metal-free peptide. Ligand concentration is 0.5 mM in Methods, but the Table 3 footnote says 0.001 M.

DHHLAHIVVDAIAHASEDRR: the values for the pKa in the data set with Cterm120 and in the data set with Glu117 (setting [3]) were 3.23 and 5.80, respectively.
As for DHHLAAIVVDAIAHASEDRR [BigR4 alpha5 domain peptide mutant H106A (L3) (Mycobacterium smegmatis; H106A)], the pKa with Cterm120 is reported as 2,97; with Glu117 (setting [3]), 5,91.
On to DAHLAHIVVDAIAHASEDRR [BigR4 alpha5 domain peptide mutant H102A (L2) (Mycobacterium smegmatis; H102A)], for which the pKa worked out at 3.35 in the data set with Cterm120; 5.61 with Glu117 (Ni(II)-bound, metal to ligand 1:1 (NiH4L to NiH3L step)); 6.10 in the data set with Glu117 (setting [3]).
For DHHLAHIVLDAVAHAGEDAI, the pKa in data set [1] came to 5.74; in data set [2], 3.16.
